Source: the nanobody polyreactivity screen of Harvey et al. (2022)

Test: yeast display, Sf9 membrane polyspecificity reagent, FACS + sequencing; frameworks hold sequencing errors
Summary of the method: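 Synthetic nanobody libraries on Saccharomyces cerevisiae BJ5465 were galactose-induced for 36–48 hours, stained 1 hour at 4 °C with 10% biotinylated, detergent-solubilized Sf9 membrane reagent and enriched on streptavidin microbeads. FACS then separated cells into low and high (top ~1%) gates by anti-HA (expression) and streptavidin (reagent binding) fluorescence. Genes were colony-PCR amplified, MiSeq 2 × 250 sequenced and CDR-length filtered. A clone's polyreactivity label is that of its gate of origin.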

| Sequence | polyreactivity (PSR sort gate) |
| --- | --- |
| KVQLVESGGGLVQAGGSLRLSCAASGFIFYYYAMGWYRQAPGKERELVAAISTDGGSTYYADSVKGRFTISRDNAKNTVYLQMNSLKPEDTAVYYCNAPYYGWGYWPLEYIRYEYWGQGTQVTVSS | low polyreactivity |
| KVQLVESGGGLVQAGGSLRLSCAASGFTFYIYAMGWYRPAPGKEREVVAAISARGGSTYYADSVKGRFTISRDNAKTTGYLQMNSLKPEDTAVDYCNALYIYAEIYGRGFWGQGTQVTVSS | high polyreactivity |
| KVQLVESGGGLVQAGGSLRLSCAASGITFYDYDMGWYRQEHGKERELVSAITWNGGSTYYADSVKGRFTISRDNAKNTVYLQMNSLKPVDTAVYYCAAESYYIYYYWGQGTQVTVSS | high polyreactivity |
| KVQLVESGGGLVQAGGSLRLSCAASGNPLLFNALGWYRQAPGKERELVARITSSGASTYYADSVKGRFTISRDNAKNTLYLQMNSLKAEDTAVYYCAARTRTRRGYTSGDYWGQGSQVTVSS | high polyreactivity |
| KVQLVESGGGLVQAGGSLRLSCAASGRIFRYYAMGWSRQAPGKERELVAAISRGGGSTYYADSVKGRFTISRDNAKNTVYLQMNSLKPEDTAVYYCANSVGRGPIGYDYWGQGTQVTVSS | high polyreactivity |
| KVQLVESGGGLVQAGGSLRLSCAASGRTFVYYAMGWYRQAPGKERELVAAISSGGSTNYADSVKGRFTISRDNAKNTVYLQMNSLKPEDTAVYYCNADWGFPDVKETGVRFDYWGQGTQVTVSS | low polyreactivity |
| KVQLVESGGGLVQAGGSLRLSCAASGSIFHNYDMGWYRQAPGKERELVADISRGGDTNYADSVKGRFTISRDNAKNTVYLEMKSLKPEDTAVYYCNATYWILDFPWWRETFDYWGQGTQVTVSS | low polyreactivity |
| KVQLVESGGGLVQAGGSLRLSCAASGSIFWDNVMGWYRQAPGNERELVADIDSWDGGSTYYADSVKGRFTISRDNAKNTVYLQMNSLKPEDTAVYYCNSDVLWWRGGDDFWGKGTQVTVSS | low polyreactivity |
| KVQLVESGGGLVQAGGSLRLSCAASGSIFYVNAMGWYRQAPGKERELVARITLSGTSTYYADSVKGRLTISRDNAKNTVYLQMNSLKPEDTAVYYCAATYWSWISLRFYWGQGTQVTVSS | low polyreactivity |
| KVQLVESGGGLVQAGGSLRLSCAASGSTFQYYAMGWYRQAPGTERELVAAITSGGSTNYADSVKGRFTISRDNAKNTVYLQMNSLKPEDTAVYYCNADSSGWFPFDYWGQGTQVTVSS | low polyreactivity |
| KVQLVESGGGLVQAGGSLRLSCAPSGSIFPLNARGWYSQAPGKERELVAAISESGGRTYYADSVKGRFTISRDNAKNTVYLQMNSLNPADTAVYHCATVRLARKSAPYDYWGQGTQVTVSS | high polyreactivity |
| KVQLVESGGGLVQAGGSLRLSSADSGRIYVGYAIVWYRQEPGKEMEMVAGISRSGDSTYYADSVKGRFTISRDNAKNTVYLQMNSLKPEDTAVYYCAARINYWGYYYWGQGSQVTVSS | high polyreactivity |
| KVQVVESGGCLVQAGGSLRLSCAASGFSFGGYAMGCYRQAPGKDRELVAAINYRGGSTNYADSVKGRFTISRDNAKNTVYFQMNSLKPEDTAVYYCAASYFYWRANRGPRYYWGQGTQVTVSS | high polyreactivity |
| KVQVVESGGGFVQAGGSLRLSCAASGSTFVINAMGCYRQAPGKERELVAAITWGGGRTYYADSVKGRFTISRDNEKNTVYFQMNSLKPEDTAVYYCAAVGSGWKGDYWGQGTQVNVSS | low polyreactivity |
| KVQVVESGGGVVQAGGTLRLSCAASGSIAGNAMGWYRQAPGKERELVAAITFRGSGTYYADSVKGRFTISRDNAKNTVYLQINSLKPEDTAVYYCNAYRRGLSGYGYWGQGTQVTVSS | high polyreactivity |
| LVHHVESGGGLVQAGRSLRLTCAASGGTFFSNAMGWYRQSPGKERELVAGITSGGRTYYADAVKGRFTISRDNAMNTVYLQMNSMKPEDTAVFYCAAERFTRKYNYWGQGTQVTLSS | high polyreactivity |
| LVQLQESGGGLVQAGGSLRLSCAASGTISPGGYMAWYRQAPCTERELVASINVGGSTNYADSVKGRFTISRDNAKNTVYLQMNSLKPEDNALYYCAVWGRNRLQLSYWGQGTQVTVIS | low polyreactivity |
| LVQLVESGGGIVQAGGSLRLSCAASGLISQRNVMGWYRQAPGKERELVARISTSSSGTYYADSVKGRFTISRDNAKNTVYLQMNSLKPEDTAVYYCAKRWSPYYRLYSWGQGTQVTVSS | high polyreactivity |
| LVQLVESGGGIVQAGGSLRLTCAASGRTFWGYSMGWYRQSPGKERELVAAISWTGGRTYYADSVKGRFTISRDYAKNSVNLQMNSLKPEDTAVYDCARPYTTYDGRYHYWGQGTQVTVSS | high polyreactivity |
| LVQLVESGGGLGQAGGSLRLSCAASGFTFTIYAMGWYRQAPGKERELVAAISSSGYSTYYADSVKGRFTISRDNAKNTVYFQMISLKPEDTAVYYCAARGYYRSHLGFLYDYWGQGTQVTVSS | high polyreactivity |
| LVQLVESGGGLLQAGGSPRLSCAASGFNFRGYAMGWYRQAPRKERELVAAINSGGSTNYADSVKGRFTISRDNAKNTVYLQMNSLNPEDTAVSYCAARVKTSYRYLRTYNYWGQGTQVTVSS | high polyreactivity |
| LVQLVESGGGLVEAGGSLRLSWAASGIIFYYYAMGWYRQAPGKEREFVAGIRWSSGSTYYADSVKGRFTISRDNAKNTVYLQMNSLKPEDTAVYYCAAAYLSWYGGYYYWGQGTQVTVSS | low polyreactivity |

| Sequence | polyreactivity (PSR sort gate) |
| --- | --- |
| LVQLVESGGGLVQAGGSLRLSCAASGFIFAIYDMGWYRQAPGKERELVAAITSSSSTYADSVKGRFTISRDNAKNTVYLQMNSLKPEDTAVYYCAADTYSYRYSNDYWGQGTQVTVSS | low polyreactivity |
| LVQLVESGGGLVQAGGSLRLSCAASGGTIVYYTMGWYRHAPGKERELVATIDNSDGSTYYADSVKGRFTISRDNAKNTVDLQMNSLKPEDTPVYYCSKSLPHSTSRDYWGQGTQLTVSS | low polyreactivity |
| LVQLVESGGGLVQAGGSLRLSCAASGNIFYWYAMGWYRQAPRKEREFVAAITRSGGSTSYADSVKGRFTISRDNAKNTVYLQMNSLKPEDTAVYYCNATHWVHFQEFYSWGQGTQVTVSS | low polyreactivity |
| LVQLVESGGGLVQAGGSLRLSCAASGSTFFYAMGWYRQAPGKERELVAGIVWSGGSTYYADSVKGRFTISRDNAKNTVYLQMNSLKPEDTAVYYCPAEYTDDYWGQGTQVTVSS | low polyreactivity |
| LVQLVESGGGLVQAGGSLRLSGAASGSPFRQNAMGWYRQAPGKERELVAAITWRGDNTYYADSVKGRFTISRDNAKKPVYFQRNSLKPDDTAVDYCAARWSYRLYWGYGYWGQGTEVTVSS | low polyreactivity |
| LVQVVESGGGLVQAGGSLGLSCAASGRIFRDYAMGWYRPATGKERELVAAISWSTVHTYYADSVKGRFTISRDNAKNTVYLQMNCLKPEDTAVYYCAVDRPGLTYYDYDYWGQGTQVTVSS | low polyreactivity |
| PVQLEESGGGLVQAGGSLRLSCPASGTSAYYARGWYRQAPGKERALVAGISIGGSTNYADSVKGRFTITRDNAKNTVYVQMTSLKPEDTAVAYCSVDGYVAFSPDRNNYWGQGTQVTVSS | low polyreactivity |
| PVQLQESGGGLVQAGGSLRLSCAARGNIFDADIMGWYSQAPGKERELVACIADGGSTNYAHSVKGRFTISRDNAKNTVYLHMNSVKPEDTAVYYCAAIAYPDIPTCFDYYSDYFFRGQGTQVTVSS | low polyreactivity |
| PVQLVDSGGGLVQAGGSLRLSCAASGRTFGWYAMGWYRQAPGKERELVAAIRGVRTHYADSVKGRFTISRDNAKNTVYLQMNSLKPEDTAVYYCAARYYRWTKSEYGYWGQGTQVTVSS | high polyreactivity |
| PVQLVESGGGIVQAGGSLRLSCAASGTSFEYNAMGWSRPAPGKERELVAAITWSVGSTYYADSVKGRFTISRDNAKNTVYLQMNSLKPEDTAVYYCAAFDTASVYEFDYWGQGTQVTVSS | low polyreactivity |
| PVQLVESGGGLVHAGGRHRLSSAASGSIFNYYPMGWYRKAPGTERELVATISAGGSTNYADSVTGRFTISRDNAKNTVYLHKNRLKPEDTAVYYCNRARYYLTSYTYLTSYDYWGQGTQGTVSS | high polyreactivity |
| PVQLVESGGGLVQAGGSLRLSCAASGFTFSYNDMGWYRQAPGKERELVAAITSTGGTYYADSVKGRFTISRDNAKNTVYLQMNSLKPEDTAVYYCAADRIGGPGSYLYDYWGQGTQVTVSS | low polyreactivity |
| PVQLVESGGGLVQAGGSLRLSCAASGITIISYAMVWYRQAPGKERELVAAITKSGGRTYYADSVKGRFTISRDNAKNTVYLQMNSLKPEDTAVYYCAAYHLRDNRIGGGYWGQGTQVTVSS | high polyreactivity |
| PVQLVESGGGLVQAGGSLRLSCAASGNIFGVYPMGWYRQAPGKERELVAVITSSGSTYADSVKGRFTISRDNAKNTVFLQMNSLKPEDTAVYYCNTDGYYHPHGFDYYRYYYWGQGTQVTVSS | high polyreactivity |
| PVQLVESGGGLVQAGGSLRLSCAASGRIFAQYAMGWYRQAPGNERELVADISSGVRTYAASVKGRFTISRDNAKNTVSFQMNSLKPEDTAVYYFNAYYIIFTRNDYWGQGTQVTVSS | low polyreactivity |
| PVQLVESGGGLVQAGGSLRLSCAASGSIFGVNDMGWYIQGAGKERELVAGINQGGGSTYYADSVKGRFTISRDIAKNTVYLQMNSLKPEDTAVYYCAAVRYVLRSPARYGYWGQGTQVTVSS | low polyreactivity |
| PVQLVESGGGLVQAGGSLRLSCAASGSTFYIYAMGWYRQAPGKERELVAAITSRGTITSYADSVKGRFTISRDNAKNTVYLQMNSLKPEDTAVYYCAADYWQDGIAYWYDYWGQGTQVTVSS | low polyreactivity |
| PVQLVESGGGLVQAGGSLRLSCAASGYTFSYNAMGWYRQAPGKERELVAAIYRGGRTYYADSVKGRFTISRDNAKNTVYLQMNSLKPEDTAVYYCAAKRWTTKNGFYEYPYYYWGQGTQVTVSS | high polyreactivity |
| PVQLVESGGGLVQAGGSLRLSCDAYGSIFAYNAMGWYRQAPGKERELVAAISVSDGITYYADSVKGRFTISRDNAKNTVYLQMISLKPEDTAVYYCPARTRGPSRAYDYWGQGTQGTVSS | low polyreactivity |
| PVQLVESRGGLVQAGGSLRLSCAASGIIFQRYAMGWYRQAPGKERELVAAINFSGGSTYYADSVKGRFTISRDNAKNTVYLQMNSLKPEDTSVYYCARAGRYAAYSPFYYWGQGTQVTVSS | high polyreactivity |
| QAQLQESGGSLLQAGGGLRLSCAASGYISVGSVMGWYRQAPSKERELVASIDQGANTNYADSVKGRYTISRDNAKNNVYLQMNSLKPEDSAVYYCATETTYILNYWGQGTQVTVSS | low polyreactivity |
